This is an account of results in the RNAGym collection of RNA variant scans (doi:10.1093/nar/gkz1192).

First the molecules themselves.
B1: CPEB3 Ribozyme (parent)
chain: UAACAGGGGGCCACAGCAGAAGCGUUCACGUCGCAGCCCCUGUCAGAUUCUGGUGAAUCUGCGAAUUCUGCUGUAUAUCUC

In the data set the parent is B1. In words: self-cleavage, relative activity (ratio to wild type); higher = more cleavage; in vitro, sequencing. Put shortly: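 Relative activity was defined as the cleaved/total read fraction for a variant divided by the same fraction for the unmutated ribozyme. CPEB3 self-cleaving ribozyme libraries were made by rounds of error-prone PCR, barcoded, and transcribed in vitro with T7 RNA polymerase for 5 hours at 37°C, and cleavage ran through transcription plus a 15 min DNase I step before EDTA. Illumina sequencing of template-switched reverse transcripts gave the reads, and DNA sequencing mapped the barcodes. Averages come from three batches, using variants with at least 5 reads.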
For UAACAGGGGGCCACAGCAGAAGCGUUCAUGUCGCAGCCCCUGUCAGAUUCUGGUGAAUCUGCGAAUUCUGCUGUACAUCUC, the self-cleavage was determined as 0.52.
With UAACAGGGGGCCACAGCAGAAGCGUUCAUGUCGCAGCCCCUGUCAGAUUCUGGUGAAUCUGCGAAUUCUGCUGUAAAUCUC, the self-cleavage is 0.62.
On to UAACAGGGGGCCACAGCAGAAGCGUUCAUGUCGCAGCCCCUGUCAGAUUCUGGUGAAUCGGCGAAUUCUGCUGUAUAUCUC, for which the self-cleavage was determined as 0.19.
For UAACAGGGGGCCACAGCAGAAGCGUUCAUGUCGCAGCCCCUGUCAGAUUCUGGUGAAUCAGCGAAUUCUGCUGUAUAUCUC, the self-cleavage amounted to 0.2.
For the variant UAACAGGGGGCCACAGCAGAAGCGUUCAUGUCGCAGCCCCUGUCAGAUUCUGGUGAAUCCGCGAAUUCUGCUGUAUAUCUC, the self-cleavage turned out to be 0.24.
Turning to UAACAGGGGGCCACAGCAGAAGCGUUCAUGUCGCAGCCCCUGUCAGAUUCUGGUGAAUCUGCGAAUUCUGCUGCAUAUCUC, the self-cleavage was found to be 0.97.
In the case of UAACAGGGGGCCACAGCAGAAGCGUUCACAUCGCAGCCCCUGUCAGUUUCUGGUGAAUCUGCGAAUUCUGCUGUAUAUCUC, the self-cleavage was found to be 0.18.
With UAACAGGGGGCCACAGCAGAAGCGUUCACAUCGCAGCCCCUGUCAGGUUCUGGUGAAUCUGCGAAUUCUGCUGUAUAUCUC, the self-cleavage turned out to be 0.41.
For the variant UAACAGGGGGCCACAGCAGAAGCGUUCAUGUCGCAGCCCCUGUCAGAUUCUGGUGAAUCUGCGAAUUCUGCUGUAUAGCUC, the self-cleavage is 0.61.
As to UAACAGGGGGCCACAGCAGAAGCGUUCAUGUCGCAGCCCCUGUCAGAUUCUGGUGAAUCUGCGAAUUCUGCUGUAUACCUC, the self-cleavage was found to be 0.44.
Then UAACAGGGGGCCACAGCAGAAGCGUUCAUGUCGCAGCCCCUGUCAGAUUCUGGUGAAUCUGCGAAUUCUGCUGUAUAACUC, with 0.36; and UAACAGGGGGCCACAGCAGAAGCGUUCACAUCGCAGCCCCUGUCGGAUUCUGGUGAAUCUGCGAAUUCUGCUGUAUAUCUC, with 0.25; and UAACAGGGGGCCACAGCAGAAGCGUUCACAUCGCAGCCCCUGUCCGAUUCUGGUGAAUCUGCGAAUUCUGCUGUAUAUCUC, with 0.17.
The figure for UAACAGGGGGCCACAGCAGAAGCGUUCACAUCGCAGCCCCUGUCUGAUUCUGGUGAAUCUGCGAAUUCUGCUGUAUAUCUC is 0.32; for UAACAGGGGGCCACAGCAGAAGCGUUCAUGUCGCAGCCCCUGUCAGAUUCUGGUGAAUCUGCGAAUUCUGCUGUAUAUCCC it is 0.58; for UAACAGGGGGCCACAGCAGAAGCGUUCAUGUCGCAGCCCCUGUCAGAUUCUGGUGAAUCUGCGAAUUCUGCUGUAUAUCAC it is 0.48.
Take UAACAGGGGGCCACAGCAGAAGCGUUCAUGUCGCAGCCCCUGUCAGAUUCUGGUGAAACUGCGAAUUCUGCUGUAUAUCUC: the self-cleavage was 0.43.
Then UAACAGGGGGCCACAGCAGAAGCGUUCAUGUCGCAGCCCCUGUCAGAUUCUGGUGAACCUGCGAAUUCUGCUGUAUAUCUC, with 0.46; and UAACAGGGGGCCACAGCAGAAGCGUUCAUGUCGCAGCCCCUGUCAGAUUCUGGUGAAGCUGCGAAUUCUGCUGUAUAUCUC, with 0.17.
Then UAACAGGGGGCCACAGCAGAAGCGUUCACAUCGCUGCCCCUGUCAGAUUCUGGUGAAUCUGCGAAUUCUGCUGUAUAUCUC, with 0.15.
For UAACAGGGGGCCACAGCAGAAGCGUUCACAUCGCGGCCCCUGUCAGAUUCUGGUGAAUCUGCGAAUUCUGCUGUAUAUCUC, the self-cleavage worked out at 0.22.
As to UAACAGGGGGCCACAGCAGAAGCGUUCAUGUCGCAGCCCCUGUCAGAUUCUGGUGAAUCUGCGAAUCCUGCUGUAUAUCUC, the self-cleavage was 0.23.
With UAACAGGGGGCCACAGCAGAAGCGUUCAUGUCGCAGCCCCUGUCAGAUUCUGGUGAAUCUGCGAAUACUGCUGUAUAUCUC, the self-cleavage was 0.29.
On to UAACAGGGGGCCACAGCAGAAGCGUUCAUGUCGCAGCCCCUGUCAGAUUCUGGUGAAUCUGCGAAAUCUGCUGUAUAUCUC, for which the self-cleavage was 0.22.
For the variant UAACAGGGGGCCACAGCAGAAGCGUUCAUGUCGCAGCCCCUGUCAGAUUCUGGUGAAUCUGCGAACUCUGCUGUAUAUCUC, the self-cleavage was 0.37.
As to UAACAGGGGGCCACAGCAGAAGCGUUCACAUCGCAGCCCCUGUCAGAUUCUGGUGAAUCUGCGAAUUCUGCUGUAUAUCUC, the self-cleavage was determined as 0.29.
Turning to UAACAGGGGGCCACAGCAGAAGCGUUCAUGUCGCAGCCCCUGUCAGAUUCUGGCGAAUCUGCGAAUUCUGCUGUAUAUCUC, the self-cleavage turned out to be 0.42.
For the variant UAACAGGGGGCCACAGCAGAAGCGUUCAUGUCGCAGCCCCUGUCAGAUUCUGGAGAAUCUGCGAAUUCUGCUGUAUAUCUC, the self-cleavage is 0.54.
With UAACAGGGGGCCACAGCAGAAGCGUUCAUGUCGCAGCCCCUGUCAGAUUCUGGUGAAUCUGCGAAUUCGGCUGUAUAUCUC, the self-cleavage amounted to 0.35.
Take UAACAGGGGGCCACAGCAGAAGCGUUCAUGUCGCAGCCCCUGUCAGAUUCUGGUGAAUCUGCGAAUUCCGCUGUAUAUCUC: the self-cleavage amounted to 0.16.
Consider UAACAGGGGGCCACAGCAGAAGCGUUCAUGUCGCAGCCCCUGUCAGAUUCUGGUGAAUCUGCGAAUUCAGCUGUAUAUCUC, for which the self-cleavage is 0.3.
The figure for UAACAGGGGGCCACAGCAGAAGCGUUCAUGUCGCAGCCCCUGUCAGAUUCUGGUGAAUCUGCGAAUUCUGCAGUAUAUCUC is 0.42; for UAACAGGGGGCCACAGCAGAAGCGUUCAUGUCGCAGCCCCUGUCAGAUUCUGGUGAAUCUGCGAAUUCUGCCGUAUAUCUC it is 0.75.
For the variant UAACAGGGGGCCACAGCAGAAGCGUUCAUGUCGCAGCCCCUGUCAGAUUCUGGUGAAUCUGCGAAUUCUGCGGUAUAUCUC, the self-cleavage is 0.53.
